# In KR20220160483A (dated 2022):
# Residue numbers refer to the chain shown, from its start.
# T1: 재조합 인간 ASM(acid sphingomyelinase) 단백질 (human, UniProt P17405 62-630, limits assumed)
# T1 construct: Recombinant protein, bought (R&D systems in the ELISA); also called 인간 ASM 단백질; recombinant human ASM protein
# T1 sequence: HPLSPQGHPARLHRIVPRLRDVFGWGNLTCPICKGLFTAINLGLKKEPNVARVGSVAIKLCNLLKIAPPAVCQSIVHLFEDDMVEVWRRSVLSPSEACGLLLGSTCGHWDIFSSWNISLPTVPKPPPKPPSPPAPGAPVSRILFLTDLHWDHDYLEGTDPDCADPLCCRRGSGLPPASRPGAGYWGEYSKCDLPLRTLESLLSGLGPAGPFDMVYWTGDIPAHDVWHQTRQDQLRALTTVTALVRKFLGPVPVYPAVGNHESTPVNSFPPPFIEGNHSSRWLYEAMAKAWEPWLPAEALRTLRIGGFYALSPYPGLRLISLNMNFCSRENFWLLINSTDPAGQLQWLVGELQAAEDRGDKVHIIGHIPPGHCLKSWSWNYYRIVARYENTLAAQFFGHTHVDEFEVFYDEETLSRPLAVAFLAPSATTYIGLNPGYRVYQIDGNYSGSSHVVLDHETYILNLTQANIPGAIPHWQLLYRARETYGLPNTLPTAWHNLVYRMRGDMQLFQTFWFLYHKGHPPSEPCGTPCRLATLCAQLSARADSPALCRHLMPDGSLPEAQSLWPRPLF
# T2: 재조합 마우스 ASM(acid sphingomyelinase) 단백질 (mouse, UniProt Q04519 45-626, limits assumed)
# T2 construct: Recombinant protein; also called 마우스 ASM 단백질; recombinant mouse ASM protein
# T2 sequence: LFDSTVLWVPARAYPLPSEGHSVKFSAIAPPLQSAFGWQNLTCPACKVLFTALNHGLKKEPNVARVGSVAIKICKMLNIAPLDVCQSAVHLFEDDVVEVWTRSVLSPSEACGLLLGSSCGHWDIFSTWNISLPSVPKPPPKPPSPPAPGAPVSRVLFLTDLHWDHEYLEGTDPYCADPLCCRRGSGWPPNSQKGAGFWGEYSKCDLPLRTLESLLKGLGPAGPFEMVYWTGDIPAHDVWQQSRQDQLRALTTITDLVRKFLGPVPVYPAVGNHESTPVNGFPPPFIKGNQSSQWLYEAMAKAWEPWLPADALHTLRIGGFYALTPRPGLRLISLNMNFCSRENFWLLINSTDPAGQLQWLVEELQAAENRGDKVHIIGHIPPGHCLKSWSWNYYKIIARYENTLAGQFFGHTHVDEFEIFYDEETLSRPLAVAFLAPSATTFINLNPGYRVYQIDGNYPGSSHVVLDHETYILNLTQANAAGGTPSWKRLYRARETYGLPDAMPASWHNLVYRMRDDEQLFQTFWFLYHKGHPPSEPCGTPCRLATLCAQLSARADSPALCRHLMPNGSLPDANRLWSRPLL
# B1: #9101 항체 (antibody, mouse IgG1, V domains shown)
# VH: EVQLLESGGGLVQPGGSLRLSCAASGFTFSNYAMSWVRQAPGKGLEWVSGIYPNGGNKYYADSVKGRFTISRDNSKNTLYLQMNSLRAEDTAVYYCAKNAYRFDYWGQGTLVTVSS
# VL: QSVLTQPPSASGTPGQRVTISCSGSSSNIGNNYVSWYQQLPGTAPKLLIYADSKRPSGVPDRFSGSKSGTSASLAIGGLRSEDEADYYCGSWDYSLNAYVFGGGTKLTVLG
# B2: #9108 항체 (antibody, mouse IgG1, V domains shown)
# VH: EVQLLESGGGLVQPGGSLRLSCAASGFTFSNYAMSWVRQAPGKGLEWVSAIYPGGGSIYYADSVKGRFTISRDNSKNTLYLQMNSLRAEDTAVYYCARDVLGLTPKPFDYWGQGTLVTVSS
# VL: B1 VL with I20L, S23T, N31S, Y33T, S35Y, D52N, K54Q, G77S, N97S, A98G
# B3: #9104 항체 (antibody, mouse IgG1, V domains shown)
# VH: B1 VH with A33Y, P53Y, N54G, G55S, K58I, K98R, N99D, A100T, Y101P, R102G
# VL: B1 VL with S23T, Y33A, S35N, A51Y, K54H, G77S, S91A, N97S
# B4: #9113 항체 (antibody, mouse IgG1, V domains shown)
# VH: EVQLLESGGGLVQPGGSLRLSCAASGFTFSSYYMSWVRQAPGKGLEWVSSISPGGSSIYYADSVKGRFTISRDNSKNTLYLQMNSLRAEDTAVYYCAKGASLFDYWGQGTLVTVSS
# VL: B1 VL with Y33A, A51S, S53N, G77S, S91T, Y94A
# notes: also called #9113 mIgG1
# B5: #9102 항체 (antibody, mouse IgG1, V domains shown)
# VH: B4 VH with S31G, S50L, G55S, S56G, G99S, A100W, S101H, L102H
# VL: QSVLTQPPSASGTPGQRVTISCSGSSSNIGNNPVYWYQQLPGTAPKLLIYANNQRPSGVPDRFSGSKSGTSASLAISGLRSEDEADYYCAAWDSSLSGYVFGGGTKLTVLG
# B6: #9123 항체 (antibody, mouse IgG1, V domains shown)
# VH: EVQLLESGGGLVQPGGSLRLSCAASGFTFSDYAMSWVRQAPGKGLEWVSAISYGGGNIYYADSVKGRFTISRDNSKNTLYLQMNSLRAEDTAVYYCARVGGMCTRRQCYYDYGMDVWGQGTLVTVSS
# VL: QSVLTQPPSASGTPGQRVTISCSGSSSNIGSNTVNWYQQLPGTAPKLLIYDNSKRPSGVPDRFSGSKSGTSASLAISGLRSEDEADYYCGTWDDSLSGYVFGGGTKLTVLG
# notes: also called #9123 mIgG1
# Assays:
# [1] = target: T1, 재조합 인간 ASM(acid sphingomyelinase) 단백질; experiment: ELISA, recombinant human ASM coated at 1 ㎍/㎖, anti-mouse IgG-HRP
# [2] = target: T1, 재조합 인간 ASM(acid sphingomyelinase) 단백질; experiment: BLI (Octet QK384), human ASM amine-coupled on AR2G sensor, antibody 0.4, 2, 10 nM
# [3] = target: T2, 재조합 마우스 ASM(acid sphingomyelinase) 단백질; experiment: BLI (Octet QK384), mouse ASM amine-coupled on AR2G sensor, antibody 0.4, 2, 10 nM; poor fit (RMax 0.0185, Full R2 0.5527), text does not count it as binding
# [4] = target: T2, 재조합 마우스 ASM(acid sphingomyelinase) 단백질; experiment: BLI (Octet QK384), mouse ASM amine-coupled on AR2G sensor, antibody 0.4, 2, 10 nM
# [5] = target: T2, 재조합 마우스 ASM(acid sphingomyelinase) 단백질; experiment: BLI (Octet QK384), mouse ASM amine-coupled on AR2G sensor, antibody 0.4, 2, 10 nM; no signal (RMax 0, Full R2 0), text does not count it as binding
EC50 [1] [pM],Kd [2] [pM],koff [2] [s⁻¹],kon [2] [M⁻¹ s⁻¹],Kd [3] [pM],koff [3] [s⁻¹],kon [3] [M⁻¹ s⁻¹],Kd [4] [pM],koff [4] [s⁻¹],kon [4] [M⁻¹ s⁻¹],Kd [5] [pM],koff [5] [s⁻¹],kon [5] [M⁻¹ s⁻¹],Binder
81.5,1160,0.000728,626000,42.5,0.000159,3.76e+06,,,,,,,B1
327,119,2.96e-05,249000,,,,3390,0.00156,459000,,,,B2
1950,209,8.18e-05,392000,,,,638,0.000198,310000,,,,B3
,564,0.000656,1.16e+06,,,,,,,< 1,< 1e-07,1e+06,B4
95.4,252,0.000105,416000,,,,498,0.000243,489000,,,,B5
758,,,,,,,,,,,,,B6
